This is an account of results in ChEMBL document CHEMBL4052696, “Varic acid analogues from fungus as PTP1B inhibitors: Biological evaluation and structure-activity relationships” (Bioorg Med Chem Lett, 2017).

Holding throughout (details): Homo sapiens
Compound in data set [1]: CCCc1cc(OC(=O)c2c(O)cc(OC(=O)c3c(O)cc(O)cc3CCC)cc2CCC)cc(O)c1C(=O)O
The experiment in a line: Competitive inhibition of PTP1B (unknown origin) assessed as Km(app) for substrate at 0.1 uM using p-nitrophenyl phosphate substrate incubated for 30 mins by Lineweaver-Burk double reciprocal plot (reference value: 1.43 mM).

Compound in data set [2]: CCCc1cc(OC(=O)c2c(O)cc(OC(=O)c3c(O)cc(O)cc3CCC)cc2CCC)cc(O)c1C(=O)O
Nature of the data set: Competitive inhibition of PTP1B (unknown origin) assessed as Km(app) for substrate at 0.25 uM using p-nitrophenyl phosphate substrate incubated for 30 mins by Lineweaver-Burk double reciprocal plot (reference value: 1.43 mM).

Compound in data set [3]: CCCc1cc(OC(=O)c2c(O)cc(OC(=O)c3c(O)cc(O)cc3CCC)cc2CCC)cc(O)c1C(=O)O
The experiment in a line: Competitive inhibition of PTP1B (unknown origin) assessed as Km(app) for substrate at 0.4 uM using p-nitrophenyl phosphate substrate incubated for 30 mins by Lineweaver-Burk double reciprocal plot (reference value: 1.43 mM).

As a reminder, the Km is the concentration of substrate that gives half-maximal velocity.

B1: Tyrosine-protein phosphatase non-receptor type 1 (Homo sapiens), P18031 (protein)
chain: MEMEKEFEQIDKSGSWAAIYQDIRHEASDFPCRVAKLPKNKNRNRYRDVSPFDHSRIKLHQEDNDYINASLIKMEEAQRSYILTQGPLPNTCGHFWEMVWEQKSRGVVMLNRVMEKGSLKCAQYWPQKEEKEMIFEDTNLKLTLISEDIKSYYTVRQLELENLTTQETREILHFHYTTWPDFGVPESPASFLNFLFKVRESGSLSPEHGPVVVHCSAGIGRSGTFCLADTCLLLMDKRKDPSSVDIKKVLLEMRKFRMGLIQTADQLRFSYLAVIEGAKFIMGDSSVQDQWKELSHEDLEPPPEHIPPPPRPPKRILEPHNGKCREFFPNHQWVKEETQEDKDCPIKEEKGSPLNAAPYGIESMSQDTEVRSRVVGGSLRGAQAASPAKGEPSLPEKDEDHALSYWKPFLVNMCVATVLTAGAYLCYRFLFNSNT
As to B1, the Michaelis-Menten constant (Km) in data set [1] is 12 mM; in data set [2] it was 44 mM; in data set [3] it was 91 mM.
